# Test results published in patent US20260193366A1 (APOGEE THERAPEUTICS, published 2026).
# Changes are numbered by the printed parent chain.
# T1: hIL-4Rα on cells (human, UniProt P24394 26-825)
# T1 sequence: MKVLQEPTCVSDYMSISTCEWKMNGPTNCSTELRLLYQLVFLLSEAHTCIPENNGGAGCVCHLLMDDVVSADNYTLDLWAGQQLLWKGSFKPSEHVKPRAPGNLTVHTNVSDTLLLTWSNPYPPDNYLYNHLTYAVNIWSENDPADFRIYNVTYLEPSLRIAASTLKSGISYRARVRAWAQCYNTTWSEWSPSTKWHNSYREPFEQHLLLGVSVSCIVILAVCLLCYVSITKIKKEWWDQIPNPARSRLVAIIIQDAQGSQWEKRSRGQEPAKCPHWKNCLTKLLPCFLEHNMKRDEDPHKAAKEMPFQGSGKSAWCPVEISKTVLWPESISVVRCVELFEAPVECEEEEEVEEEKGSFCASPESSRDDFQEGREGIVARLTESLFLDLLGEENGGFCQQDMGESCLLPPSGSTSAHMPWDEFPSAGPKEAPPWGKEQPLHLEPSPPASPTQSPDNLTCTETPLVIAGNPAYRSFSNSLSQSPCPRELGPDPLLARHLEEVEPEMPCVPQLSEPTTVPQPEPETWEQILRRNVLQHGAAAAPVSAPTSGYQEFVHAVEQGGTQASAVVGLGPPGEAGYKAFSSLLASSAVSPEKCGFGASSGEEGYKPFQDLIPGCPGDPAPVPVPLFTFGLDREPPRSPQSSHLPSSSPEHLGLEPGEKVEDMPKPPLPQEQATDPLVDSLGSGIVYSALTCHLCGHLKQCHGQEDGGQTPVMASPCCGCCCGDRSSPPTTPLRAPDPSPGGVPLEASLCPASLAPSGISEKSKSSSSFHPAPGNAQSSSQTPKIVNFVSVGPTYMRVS
# T2: human IL-4Rα (human, UniProt P24394 26-232)
# T2 construct: also called Hu IL-4Rα; hIL-4Rα
# T2 sequence: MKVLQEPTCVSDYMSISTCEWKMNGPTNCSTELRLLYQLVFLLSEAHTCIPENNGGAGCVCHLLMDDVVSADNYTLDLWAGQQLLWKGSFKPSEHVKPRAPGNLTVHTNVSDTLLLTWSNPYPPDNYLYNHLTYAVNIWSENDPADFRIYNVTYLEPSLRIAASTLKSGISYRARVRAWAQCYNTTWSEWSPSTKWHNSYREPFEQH
# T3: cynomolgus monkey IL-4Rα (cynomolgus monkey, UniProt P24394 26-231 (human entry), limits assumed)
# T3 construct: also called Cyno IL-4Rα; cyIL-4Rα
# T3 chain: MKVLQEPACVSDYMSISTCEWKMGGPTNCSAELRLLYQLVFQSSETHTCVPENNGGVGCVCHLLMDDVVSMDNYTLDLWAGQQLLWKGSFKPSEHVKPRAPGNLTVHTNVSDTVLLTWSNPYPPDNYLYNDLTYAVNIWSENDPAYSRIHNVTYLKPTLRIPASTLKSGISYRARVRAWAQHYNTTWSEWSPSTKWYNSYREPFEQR
# B1: Construct 13 (mAb422) (antibody, IgG4, V domains shown)
# VH: EVQLVESGGGLEQPGGSLRLSCAGSGFTFRDFAMTWVRQAPGKGLEWVSSVSGSGGNTYYADSVKGRFTISRDNSKNTLYLQMNSLRAEDTAVYYCAKDRLSVTVRPRYYGLDVWGQGTTVTVSS
# VL: DIVMTQSPLSLPVTPGEPASISCRSSQSVLYSIGYNYVDWYLQKSGQSPQLLIYLGNKRASGVPDRFSGSGSGTDFTLKISRVEAEDVGFYYCMQSLTSPYTFGQGTKLEIK
# notes: VH/VL only
# B2: Construct 15 (mAb423) (antibody, IgG4, V domains shown)
# VH: B1 VH with V51I, T58I, V103K, V105I
# VL: B1 VL with R24T, S25A, V29L
# notes: VH/VL only
# B3: Construct 24 (mAb432) (antibody, IgG4, V domains shown)
# VH: B1 VH with V51I, T58I, V103I, T104A
# VL: B1 VL with R24T, S25A, V29L, Y35K, K58N, S61T
# notes: VH/VL only
# B4: Construct 31 (mAb443) (antibody, IgG4, V domains shown)
# VH: B1 VH with V51I, T58I
# VL: B1 VL with V29L, I33N, V38L, N57S, K58N, S96A, T98Q, S99A
# notes: VH/VL only
# B5: Construct 38 (mAb471) (antibody, IgG4, V domains shown)
# VH: B1 VH with V51I, T58I
# VL: B1 VL with V29L, Y35K, L55E
# notes: VH/VL only
# B6: Construct 38 (mAb471) with IgG1 YTE LALA heavy chain constant region (antibody, V domains shown)
# VH: B1 VH with V51I, T58I
# VL: B1 VL with V29L, Y35K, L55E
# B7: Construct 15 (mAb423) with IgG1 YTE LALA heavy chain constant region (antibody, V domains shown)
# VH: B1 VH with V51I, T58I, V103K, V105I
# VL: B1 VL with R24T, S25A, V29L
# B8: Construct 24 (mAb432) with IgG1 YTE LALA heavy chain constant region (antibody, V domains shown)
# VH: B1 VH with V51I, T58I, V103I, T104A
# VL: B1 VL with R24T, S25A, V29L, Y35K, K58N, S61T
# B9: Construct 31 (mAb443) with IgG1 YTE LALA heavy chain constant region (antibody, V domains shown)
# VH: B1 VH with V51I, T58I
# VL: B1 VL with V29L, I33N, V38L, N57S, K58N, S96A, T98Q, S99A
# B10: Construct 13 (mAb422) with IgG1 YTE LALA heavy chain constant region (antibody, V domains shown)
# VH: B1 VH
# VL: B1 VL
# Target: T1, hIL-4Rα on cells
# Assay: cell-based or functional assay
Relative Inhibition of IL-4 induced pSTAT6 IC50,Relative Inhibition of IL-13 induced pSTAT6 IC50,Binder
0.415 relative to dupilumab,0.824 relative to dupilumab,B1
0.285 relative to dupilumab,0.468 relative to dupilumab,B2
0.629 relative to dupilumab,0.586 relative to dupilumab,B3
1.23 relative to dupilumab,1.61 relative to dupilumab,B4
0.723 relative to dupilumab,1.56 relative to dupilumab,B5

# Target: T2, human IL-4Rα
# Assay: SPR, Carterra LSA;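 also: antibodies captured on an anti-human Fc sensor chip, antigen injected at several concentrations, association and dissociation rates fitted with a 1:1 Langmuir model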
# Description: (§1) Binding affinity (KD) of antibodies to human and cynomolgus monkey IL-4Rα was determined through surface plasmon resonance (SPR) using a Carterra LSA. Briefly, an HC30M sensor chip that was previously functionalized with a polyclonal mixture of goat anti-human Fc antibody and used to capture purified antibodies at a level between 100-1000 RLU. […] Regeneration of the chip between different concentrations of antigen was performed with 200 mM phosphoric acid and antibody was captured again as previously described. Association and dissociation rate constants were subsequently determined through fitting to a 1:1 Langmuir binding model using the Kinetics Software from Carterra from which a KD value was derived.
KD Relative to Dupilumab,Kd,Binder
0.65,7.37 pM,B1
1.21,13.7 pM,B2
0.79,8.91 pM,B3
0.73,8.29 pM,B4
0.52,5.89 pM,B5

# Target: T3, cynomolgus monkey IL-4Rα
# Assay: SPR, Carterra LSA;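 also: antibodies captured on an anti-human Fc sensor chip, antigen injected at several concentrations, association and dissociation rates fitted with a 1:1 Langmuir model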
# Description: as §1
KD Relative to Dupilumab,Kd,Binder
0.02,12600 pM,B1
0.04,24600 pM,B2
0.11,66900 pM,B3
0.67,421000 pM,B4
0.4,249000 pM,B5

# Target: T1, hIL-4Rα on cells
# Assay: cell-based or functional assay
# Remark: another data set of the same source
Inhibition of IL-4 induced pSTAT6 IC50,Inhibition of IL-13 induced pSTAT6 IC50,Binder
0.248 nM,1.05 nM,B6
0.122 nM,0.599 nM,B7
0.269 nM,1.09 nM,B8
0.452 nM,0.916 nM,B9
0.185 nM,0.612 nM,B10

# Target: T2, human IL-4Rα
# Assay: KinExA
# Description: Binding affinity (KD) of exemplary antibodies to human IL-4Rα was determined using the Kinetic Exclusion Assay (KinExA). Briefly, antibody and recombinant human IL-4Rα were equilibrated in solution. […] Samples were incubated for a time period ranging from 3.5 hours to 340 hours, to fully reach equilibrium. Once samples reached equilibrium, azlactone beads previously coated with recombinant human IL-4Rα were used to capture any free antibody from the equilibrated solution. […] The KinExA 4000 instrument was used to capture fluorescent signal and convert to a voltage signal that is directly proportional to the amount of free antibody in all the equilibrated samples, allowing for the determination of the apparent affinity of the antibody.
KD Relative to Dupilumab,Kd,Binder
0.267,0.299 pM,B1
0.01,0.0109 pM,B2
0.105,0.118 pM,B3
0.252,0.282 pM,B4
0.376,0.421 pM,B5

# Target: T1, hIL-4Rα on cells
# Assay: FACS on HEK293 cells, competitor biotin-hIL-4;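 as to Relative Blockade of IL-4 Binding IC50: HEK293 cells stably co-expressing hIL-13Rα and hIL-4Rα, stained for 1 h at 4 °C, read-out as mean fluorescence intensity by flow cytometry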
row,Relative Blockade of IL-4 Binding IC50,Binder
1,1.02 relative to dupilumab,B1
2,0.66 relative to dupilumab,B2
3,0.973 relative to dupilumab,B3
4,1.01 relative to dupilumab,B4
5,0.981 relative to dupilumab,B5

# Target: T1, hIL-4Rα on cells
# Assay: FACS on HEK293 cells, competitor biotin-hIL-13;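 as to Relative Blockade of IL-13 Binding IC50: stably transduced cells co-expressing both receptor chains, stained cold, with cell-bound signal read as mean fluorescence intensity by flow cytometry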
# Description: (§2) Briefly, HEK293 previously transduced to stably express both hIL-13Rα and hIL-4Rα were cultured and harvested. Cells were seeded at 200,000 cells in 100 uL per well. Cells were washed and the supernatant discarded. […] The cells were stained in this mixture at 4° C. for 1 hour. […] Cells were incubated 4° C. for 1 hour, protected from light. Cells were then washed and the MFI of cells in each well were recorded by FACS using a BD FACSCanto II. Subsequent data were analyzed using GraphPad Prism.
# (§3) The values reflect absolute IC₅₀ measurements.
row,IC50,Binder
1,226 pM,B6
2,204 pM,B7
3,234 pM,B8
4,209 pM,B9
5,235 pM,B10

# Target: T1, hIL-4Rα on cells
# Assay: cell-based or functional assay
# Remark: another data set of the same source
Relative Inhibition of IL-4 induced TARC IC50,Relative Inhibition of IL-13 induced TARC IC50,Binder
0.507 relative to dupilumab,1.01 relative to dupilumab,B1
0.453 relative to dupilumab,0.35 relative to dupilumab,B2
0.445 relative to dupilumab,0.594 relative to dupilumab,B3
1.37 relative to dupilumab,0.703 relative to dupilumab,B4
1.17 relative to dupilumab,1.63 relative to dupilumab,B5

# Target: T1, hIL-4Rα on cells
# Assay: FACS on HEK293 cells, competitor biotin-hIL-13;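 as to Relative Blockade of IL-13 Binding IC50: stably transduced cells co-expressing both receptor chains, stained cold, with cell-bound signal read as mean fluorescence intensity by flow cytometry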
# Remark: another data set of the same source
# Description: as §2
row,Relative Blockade of IL-13 Binding IC50,Binder
1,0.882 relative to dupilumab,B1
2,0.876 relative to dupilumab,B2
3,0.825 relative to dupilumab,B3
4,0.964 relative to dupilumab,B4
5,0.996 relative to dupilumab,B5

# Target: T1, hIL-4Rα on cells
# Assay: FACS on HEK293 cells, competitor biotin-hIL-4;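 as to Relative Blockade of IL-4 Binding IC50: HEK293 cells stably co-expressing hIL-13Rα and hIL-4Rα, stained for 1 h at 4 °C, read-out as mean fluorescence intensity by flow cytometry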
# Remark: another data set of the same source
# Description: as §2, §3
row,IC50,Binder
1,271 pM,B6
2,230 pM,B7
3,234 pM,B8
4,279 pM,B9
5,238 pM,B10

# Target: T1, hIL-4Rα on cells
# Assay: cell-based or functional assay
# Remark: another data set of the same source
Relative Inhibition of IL-4 induced TF-1 Proliferation IC50,Relative Inhibition of IL-13 induced TF-1 Proliferation IC50,Binder
0.675 relative to dupilumab,0.794 relative to dupilumab,B1
0.281 relative to dupilumab,0.71 relative to dupilumab,B2
1.03 relative to dupilumab,0.693 relative to dupilumab,B3
1.25 relative to dupilumab,1.24 relative to dupilumab,B4
1.04 relative to dupilumab,1.2 relative to dupilumab,B5

# Target: T1, hIL-4Rα on cells
# Assay: cell-based or functional assay
# Remark: another data set of the same source
Inhibition of IL-4 induced TF-1 Proliferation IC50,Inhibition of IL-13 induced TF-1 Proliferation IC50,Binder
52 pM,161 pM,B6
28 pM,117 pM,B7
52 pM,166 pM,B8
58 pM,175 pM,B9
38 pM,119 pM,B10

# Target: T1, hIL-4Rα on cells
# Assay: cell-based or functional assay
# Remark: another data set of the same source
Inhibition of IL-4 induced TARC IC50,Inhibition of IL-13 induced TARC IC50,Binder
259 pM,527 pM,B6
127 pM,212 pM,B7
222 pM,361 pM,B8
228 pM,456 pM,B9
179 pM,261 pM,B10
